In paper PMC12402178 one finds koff data, which are given here for one substance.

The target of assay [1] is microtubules polymerised from porcine brain tubulin (GMPCPP-stabilised seeds, dynamic GDP lattice, or taxol-stabilised) (porcine) (UniProt P02550). The assay is described as follows: FRAP (TIRF microscopy); anillin-GFP bleached on single GMPCPP microtubules; single exponential fit, median of fits.
For assay [2] the target is unchanged. Description: FRAP (TIRF microscopy); anillin-GFP bleached on single GDP (dynamic) microtubules; single exponential fit, median of fits; 26 C.

As a reminder, the koff is the first-order rate constant of dissociation.

Anillin-GFP (full-length human anillin, isoform 2, 1087 amino acids), sequence (Q9NQW6 other isoform, or with tags, fused parts or gaps): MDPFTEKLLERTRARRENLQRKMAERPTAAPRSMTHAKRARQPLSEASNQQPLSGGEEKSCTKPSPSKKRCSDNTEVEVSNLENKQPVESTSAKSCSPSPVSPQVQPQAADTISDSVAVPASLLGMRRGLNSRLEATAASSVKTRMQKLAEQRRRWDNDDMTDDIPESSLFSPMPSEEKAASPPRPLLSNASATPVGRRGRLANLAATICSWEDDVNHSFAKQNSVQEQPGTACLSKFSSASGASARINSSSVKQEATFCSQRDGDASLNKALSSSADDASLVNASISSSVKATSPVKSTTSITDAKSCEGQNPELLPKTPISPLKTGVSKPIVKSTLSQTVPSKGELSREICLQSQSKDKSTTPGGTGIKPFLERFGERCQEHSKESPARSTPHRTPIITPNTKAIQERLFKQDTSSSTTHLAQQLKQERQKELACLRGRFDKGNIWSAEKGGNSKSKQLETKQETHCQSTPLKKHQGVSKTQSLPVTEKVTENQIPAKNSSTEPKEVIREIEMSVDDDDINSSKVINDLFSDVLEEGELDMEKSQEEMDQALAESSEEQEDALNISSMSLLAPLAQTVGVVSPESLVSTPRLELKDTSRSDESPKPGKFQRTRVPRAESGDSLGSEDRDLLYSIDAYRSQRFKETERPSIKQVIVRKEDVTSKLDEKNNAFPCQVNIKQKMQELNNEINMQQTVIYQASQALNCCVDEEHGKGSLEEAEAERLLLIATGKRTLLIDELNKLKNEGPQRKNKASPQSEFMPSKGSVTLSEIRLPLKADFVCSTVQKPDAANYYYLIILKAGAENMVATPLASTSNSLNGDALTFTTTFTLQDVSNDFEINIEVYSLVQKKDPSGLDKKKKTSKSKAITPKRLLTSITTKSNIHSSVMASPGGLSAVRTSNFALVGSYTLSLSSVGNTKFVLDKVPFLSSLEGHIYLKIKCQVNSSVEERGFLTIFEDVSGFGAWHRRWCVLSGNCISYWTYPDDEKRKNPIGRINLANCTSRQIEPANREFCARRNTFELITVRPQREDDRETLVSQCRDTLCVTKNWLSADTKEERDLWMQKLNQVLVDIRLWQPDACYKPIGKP

For “Anillin-GFP (full-length human anillin, isoform 2, 1087 amino acids) (from UniProt Q9NQW6-2 1-1087) (natural protein)”, the koff in assay [1] stood at 0.26 s⁻¹; in assay [2], 1.07 s⁻¹.
